Measurements taken from article PMC5467389.

Legend:
[1] = molecular target: HA-tagged spinophilin (human) (UniProt Q96SB3); experiment: co-IP; HEK293 cells co-transfected with HA-spinophilin, V5-NF-M and kinase dead K72H myc-PKAc; low-ionic Tris buffer with 1% Triton X-100; HA or V5 immunoprecipitation, immunoblot
[2] = molecular target: PP1; experiment: spinophilin IP, spectral counting by MS; conditions: reference: intact (contralateral) striatum; sites S17,S100

Sequence of spinophilin (Q6R891 whole entry, looked up, change not shown): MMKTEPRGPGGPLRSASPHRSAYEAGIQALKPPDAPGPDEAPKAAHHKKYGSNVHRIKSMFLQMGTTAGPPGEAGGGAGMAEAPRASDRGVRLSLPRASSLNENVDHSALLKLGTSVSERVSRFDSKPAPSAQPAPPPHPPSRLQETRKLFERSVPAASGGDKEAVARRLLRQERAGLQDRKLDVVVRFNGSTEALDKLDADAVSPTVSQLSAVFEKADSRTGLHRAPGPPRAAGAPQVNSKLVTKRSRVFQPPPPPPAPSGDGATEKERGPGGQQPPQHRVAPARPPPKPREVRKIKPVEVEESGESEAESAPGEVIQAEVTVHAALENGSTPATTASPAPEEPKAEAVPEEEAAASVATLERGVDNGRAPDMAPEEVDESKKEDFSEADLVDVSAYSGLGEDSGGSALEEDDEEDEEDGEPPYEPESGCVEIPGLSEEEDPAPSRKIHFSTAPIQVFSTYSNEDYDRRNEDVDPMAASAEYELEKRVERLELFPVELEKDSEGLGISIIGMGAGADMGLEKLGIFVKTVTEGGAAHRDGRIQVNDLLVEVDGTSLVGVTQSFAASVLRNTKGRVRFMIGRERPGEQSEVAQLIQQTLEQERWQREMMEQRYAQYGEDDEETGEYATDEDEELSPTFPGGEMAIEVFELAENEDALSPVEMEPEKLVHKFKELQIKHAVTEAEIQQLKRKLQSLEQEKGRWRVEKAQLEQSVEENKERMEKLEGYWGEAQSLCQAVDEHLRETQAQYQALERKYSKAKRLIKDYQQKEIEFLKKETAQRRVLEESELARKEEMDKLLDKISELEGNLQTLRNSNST
Sequence of UniProt Q96SB3 (Q96SB3 whole entry): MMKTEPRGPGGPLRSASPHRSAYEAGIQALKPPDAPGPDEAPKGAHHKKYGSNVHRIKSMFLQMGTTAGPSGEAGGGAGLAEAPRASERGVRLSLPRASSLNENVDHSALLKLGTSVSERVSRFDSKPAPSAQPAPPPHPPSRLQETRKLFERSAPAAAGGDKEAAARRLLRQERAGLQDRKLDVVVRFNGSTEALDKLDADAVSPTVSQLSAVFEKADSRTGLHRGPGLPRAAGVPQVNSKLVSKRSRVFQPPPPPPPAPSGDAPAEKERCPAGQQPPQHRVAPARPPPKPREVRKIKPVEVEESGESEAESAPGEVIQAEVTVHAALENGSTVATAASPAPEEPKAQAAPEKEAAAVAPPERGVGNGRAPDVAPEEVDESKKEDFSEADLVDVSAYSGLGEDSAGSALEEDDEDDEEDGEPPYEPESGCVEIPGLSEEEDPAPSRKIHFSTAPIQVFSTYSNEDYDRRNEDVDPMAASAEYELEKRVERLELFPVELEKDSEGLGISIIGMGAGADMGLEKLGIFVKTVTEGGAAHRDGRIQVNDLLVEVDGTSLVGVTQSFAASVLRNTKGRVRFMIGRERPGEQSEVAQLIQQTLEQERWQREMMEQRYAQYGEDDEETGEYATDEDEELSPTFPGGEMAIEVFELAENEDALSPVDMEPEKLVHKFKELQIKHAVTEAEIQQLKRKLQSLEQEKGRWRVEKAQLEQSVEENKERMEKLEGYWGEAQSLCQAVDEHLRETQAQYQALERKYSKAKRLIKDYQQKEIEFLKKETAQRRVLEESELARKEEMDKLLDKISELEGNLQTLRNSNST

Substance	percent reduction of the association against wild type PKAc [1]	other: percent increase over reference [2]
kinase dead (K72H mutant) myc-tagged PKAc (enzyme)	63%	
spinophilin (from UniProt Q6R891) 6-OHDA-lesioned (ipsilateral) striatum		28%
